Reference: patent US7244707

Target: cation-independent mannose-6-phosphate (CIM6P) receptor, human (human) (UniProt P11717)
Test: cell-based or functional assay

Sequence of UniProt P11717 (P11717 41-2491): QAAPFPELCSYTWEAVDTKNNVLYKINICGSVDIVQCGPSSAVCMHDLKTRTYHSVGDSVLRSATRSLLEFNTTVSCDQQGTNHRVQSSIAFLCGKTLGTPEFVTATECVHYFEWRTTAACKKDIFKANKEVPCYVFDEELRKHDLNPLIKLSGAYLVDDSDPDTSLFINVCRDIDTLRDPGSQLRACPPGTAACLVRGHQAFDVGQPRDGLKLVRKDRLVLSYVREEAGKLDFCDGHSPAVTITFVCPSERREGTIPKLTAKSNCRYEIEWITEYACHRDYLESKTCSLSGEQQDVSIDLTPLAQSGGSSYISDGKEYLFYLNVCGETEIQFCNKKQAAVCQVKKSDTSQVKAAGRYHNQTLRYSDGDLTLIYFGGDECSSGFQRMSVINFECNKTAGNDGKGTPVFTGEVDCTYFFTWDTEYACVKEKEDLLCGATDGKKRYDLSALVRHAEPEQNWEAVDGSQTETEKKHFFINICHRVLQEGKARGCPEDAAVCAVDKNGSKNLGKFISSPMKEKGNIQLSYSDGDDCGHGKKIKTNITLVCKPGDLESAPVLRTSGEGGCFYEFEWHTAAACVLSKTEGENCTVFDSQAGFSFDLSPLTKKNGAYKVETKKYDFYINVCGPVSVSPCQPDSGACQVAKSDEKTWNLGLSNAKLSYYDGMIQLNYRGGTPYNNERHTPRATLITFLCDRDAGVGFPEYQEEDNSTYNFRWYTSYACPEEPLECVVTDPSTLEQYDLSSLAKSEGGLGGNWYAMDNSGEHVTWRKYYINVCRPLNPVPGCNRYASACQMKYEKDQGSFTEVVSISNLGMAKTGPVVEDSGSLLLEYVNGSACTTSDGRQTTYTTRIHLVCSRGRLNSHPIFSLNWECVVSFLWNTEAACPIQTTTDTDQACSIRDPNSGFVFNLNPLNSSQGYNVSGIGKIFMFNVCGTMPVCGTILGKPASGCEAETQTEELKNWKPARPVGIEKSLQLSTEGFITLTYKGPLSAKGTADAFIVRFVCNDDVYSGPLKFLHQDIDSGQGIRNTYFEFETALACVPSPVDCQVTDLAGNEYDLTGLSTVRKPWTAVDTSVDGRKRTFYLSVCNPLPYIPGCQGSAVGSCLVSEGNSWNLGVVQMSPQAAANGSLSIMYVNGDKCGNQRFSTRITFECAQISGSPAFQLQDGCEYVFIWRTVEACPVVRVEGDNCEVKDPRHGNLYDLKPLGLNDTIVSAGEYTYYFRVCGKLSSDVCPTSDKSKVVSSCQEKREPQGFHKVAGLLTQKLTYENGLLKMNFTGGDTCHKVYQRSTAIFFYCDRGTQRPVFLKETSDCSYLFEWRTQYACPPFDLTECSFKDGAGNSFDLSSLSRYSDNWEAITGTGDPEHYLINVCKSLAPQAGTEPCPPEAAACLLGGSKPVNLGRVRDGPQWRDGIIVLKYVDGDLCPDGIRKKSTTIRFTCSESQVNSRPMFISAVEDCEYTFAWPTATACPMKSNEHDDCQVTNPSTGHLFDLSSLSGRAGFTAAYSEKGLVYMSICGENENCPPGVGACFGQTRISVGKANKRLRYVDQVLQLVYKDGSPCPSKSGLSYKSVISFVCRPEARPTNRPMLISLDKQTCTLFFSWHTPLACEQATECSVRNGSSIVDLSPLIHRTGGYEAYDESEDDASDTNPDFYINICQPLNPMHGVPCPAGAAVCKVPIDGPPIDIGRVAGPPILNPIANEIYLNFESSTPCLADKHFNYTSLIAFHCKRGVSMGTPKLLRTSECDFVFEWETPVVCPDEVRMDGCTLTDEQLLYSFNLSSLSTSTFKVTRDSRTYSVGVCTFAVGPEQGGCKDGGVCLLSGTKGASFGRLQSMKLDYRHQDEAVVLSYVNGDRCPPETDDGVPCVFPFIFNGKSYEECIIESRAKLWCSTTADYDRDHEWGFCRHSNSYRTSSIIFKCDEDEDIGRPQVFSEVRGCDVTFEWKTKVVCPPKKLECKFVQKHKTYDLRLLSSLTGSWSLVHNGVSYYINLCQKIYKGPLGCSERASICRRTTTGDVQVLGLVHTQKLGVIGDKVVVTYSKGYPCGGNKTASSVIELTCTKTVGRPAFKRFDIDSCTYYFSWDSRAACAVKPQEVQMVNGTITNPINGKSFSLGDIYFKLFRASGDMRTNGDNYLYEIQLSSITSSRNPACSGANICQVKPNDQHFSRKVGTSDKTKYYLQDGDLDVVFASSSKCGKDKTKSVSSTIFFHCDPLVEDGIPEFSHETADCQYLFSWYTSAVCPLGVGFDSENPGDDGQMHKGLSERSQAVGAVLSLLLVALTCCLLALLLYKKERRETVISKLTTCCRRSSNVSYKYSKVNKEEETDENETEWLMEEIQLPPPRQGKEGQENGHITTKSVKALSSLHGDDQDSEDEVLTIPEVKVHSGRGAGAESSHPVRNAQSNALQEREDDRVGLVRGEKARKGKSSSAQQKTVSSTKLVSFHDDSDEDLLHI

Leu^27IGF-II (receptor grade) (from UniProt P01344 25-91) (ligand)
Active TGF -1 as % Control (TF1 monocytes, TGF-1 ELISA), 25 nmol/L Leu^27-IGF-II: 12.7 % Control
